Results from PMC7472852, “The Phosphatase PP2A Interacts With ArnA and ArnB to Regulate the Oligomeric State and the Stability of the ArnA/B Complex” (Frontiers in Microbiology, 2020).
Blank lines part the entries; values can stand above or below the molecule they belong to.

B1: N-terminally Strep-tagged ArnA (natural protein, S. acidocaldarius, UniProt Q4J9H4 1-206, looked up)
chain: MTWKCNLCGYENDDDALFCIKCGAQKSSEAQQLPQQQPSEPQAQGVVTQQQVVTNPPVQAQVATPQQPAQQPVLPQPEPAQPQPVSSTPAPQQASQPTNRYYIYFIQTPNENLVNKKVLLNFDLFPSVSMGRSPENIVIVPDSEVSRKHAVIYLDNSELYIEDLNSTNGTYVYDGKQFTPIKGKQKIEPNSIIKLGNQTIVRILKE
notes: ArnA of Sulfolobus acidocaldarius; printed molecular mass of Strep-ArnA 26.8 kDa; also called Strep-ArnA; source: E. coli Rosetta (DE3)/pLysS, purified (heat step, streptavidin beads, SEC); not shown: Strep II, N-terminal, kept

Legend:
[1] = target: His-tagged ArnA (S. acidocaldarius); test: mass photometry; Refeyn OneMP, 20-100 nM protein in 50 mM Tris pH 8.0, 150 mM NaCl; SEC fractions of ArnA, ArnB, ArnA/B complex and phosphorylated ArnA/B complex
[2] = target: the molecule itself; test: SEC; Superdex 200 (16/600), 50 mM Tris pH 8, 150 mM NaCl; equal amounts of ArnA and ArnB mixed and kept on ice for 1 h; fractions on SDS-PAGE; stoichiometry concluded from SEC and mass photometry together
[3] = target: B1; test: as above; conditions: both partners purified
[4] = target: the molecule itself; test: mass photometry; Refeyn OneMP, 20-100 nM protein in 50 mM Tris pH 8.0, 150 mM NaCl; SEC fractions of ArnA, ArnB, ArnA/B complex and phosphorylated ArnA/B complex

Molecule: B1
stoichiometry N [2]: 2

B3: phosphorylated ArnA/B complex (complex, S. acidocaldarius)
chain 1: MTWKCNLCGYENDDDALFCIKCGAQKSSEAQQLPQQQPSEPQAQGVVTQQQVVTNPPVQAQVATPQQPAQQPVLPQPEPAQPQPVSSTPAPQQASQPTNRYYIYFIQTPNENLVNKKVLLNFDLFPSVSMGRSPENIVIVPDSEVSRKHAVIYLDNSELYIEDLNSTNGTYVYDGKQFTPIKGKQKIEPNSIIKLGNQTIVRILKE
chain 2: MTISVKAELSHKYSFTSPLKGVFRLIIVPEKVSTARGFHYIILLDTSGSMYGVKIETAKQGAMELLSRIPEGNKISFLTFSNNVNILSEYADAPSLVQQIKQIRSGGQTVLYRALERAIEIAKKHDLPGYIILLTDGQPTDVPETDAYEKLNYPEAYKVIAFGIGDDYNERLLKVITDKTAGILYHVEDAKEIAEMLPQSAVTEIGAKNVSIDIVSETQVKLLNYPGPPVKLGAVESVVRVYGEIIIPPNFTGRLATVKISYEDPLSSRINRLEVNFDITRANDVKRFLDGINNDLVNEYRYYELMSKLANQLNSNNLSEATRTVEQMQMIAQQTRRMELIETTRRISESIETTRRIGTVEQTRKISKEITSEVTKKLRS
modifications: phosphorylated in vitro by the kinase ArnC (sites not given) | phosphorylated in vitro by the kinase ArnC (sites not given)
notes: ArnA of Sulfolobus acidocaldarius; ArnB of Sulfolobus acidocaldarius; Same tag uncertainty as m13; ArnB is the chain that is mainly phosphorylated in the complex; also called phosphorylated oligomeric ArnA/B complex; (ArnA/B)2; source: reconstituted ArnA/B complex (E. coli proteins, SEC-isolated) incubated with ArnC, ATP and Mn2+ at 55°C for 30 min
stoichiometry N [4]: 2 ArnA/B heterodimers per complex

The next lines start with the values.

stoichiometry N [1]: 2
Molecule: His-tagged ArnA (natural protein)

stoichiometry N [1]: 1 | stoichiometry N [3]: 1
B2: C-terminally His-tagged ArnB (natural protein, S. acidocaldarius, UniProt Q4J9H3 1-380, looked up)
chain: MTISVKAELSHKYSFTSPLKGVFRLIIVPEKVSTARGFHYIILLDTSGSMYGVKIETAKQGAMELLSRIPEGNKISFLTFSNNVNILSEYADAPSLVQQIKQIRSGGQTVLYRALERAIEIAKKHDLPGYIILLTDGQPTDVPETDAYEKLNYPEAYKVIAFGIGDDYNERLLKVITDKTAGILYHVEDAKEIAEMLPQSAVTEIGAKNVSIDIVSETQVKLLNYPGPPVKLGAVESVVRVYGEIIIPPNFTGRLATVKISYEDPLSSRINRLEVNFDITRANDVKRFLDGINNDLVNEYRYYELMSKLANQLNSNNLSEATRTVEQMQMIAQQTRRMELIETTRRISESIETTRRIGTVEQTRKISKEITSEVTKKLRS
notes: ArnB of Sulfolobus acidocaldarius; printed molecular mass of ArnB-His 43.6 kDa; also called ArnB-His; source: E. coli Rosetta (DE3)/pLysS, purified (heat step, Ni-NTA, SEC); not shown: His, C-terminal, kept
